Measured values published in article doi:10.1101/2023.09.29.560221 (bioRxiv, 2023).

Key:
human Topoisomerase I = molecular target: T1, human Topoisomerase I (human, UniProt P11387 1-765); assay: ELISA
T1 sequence: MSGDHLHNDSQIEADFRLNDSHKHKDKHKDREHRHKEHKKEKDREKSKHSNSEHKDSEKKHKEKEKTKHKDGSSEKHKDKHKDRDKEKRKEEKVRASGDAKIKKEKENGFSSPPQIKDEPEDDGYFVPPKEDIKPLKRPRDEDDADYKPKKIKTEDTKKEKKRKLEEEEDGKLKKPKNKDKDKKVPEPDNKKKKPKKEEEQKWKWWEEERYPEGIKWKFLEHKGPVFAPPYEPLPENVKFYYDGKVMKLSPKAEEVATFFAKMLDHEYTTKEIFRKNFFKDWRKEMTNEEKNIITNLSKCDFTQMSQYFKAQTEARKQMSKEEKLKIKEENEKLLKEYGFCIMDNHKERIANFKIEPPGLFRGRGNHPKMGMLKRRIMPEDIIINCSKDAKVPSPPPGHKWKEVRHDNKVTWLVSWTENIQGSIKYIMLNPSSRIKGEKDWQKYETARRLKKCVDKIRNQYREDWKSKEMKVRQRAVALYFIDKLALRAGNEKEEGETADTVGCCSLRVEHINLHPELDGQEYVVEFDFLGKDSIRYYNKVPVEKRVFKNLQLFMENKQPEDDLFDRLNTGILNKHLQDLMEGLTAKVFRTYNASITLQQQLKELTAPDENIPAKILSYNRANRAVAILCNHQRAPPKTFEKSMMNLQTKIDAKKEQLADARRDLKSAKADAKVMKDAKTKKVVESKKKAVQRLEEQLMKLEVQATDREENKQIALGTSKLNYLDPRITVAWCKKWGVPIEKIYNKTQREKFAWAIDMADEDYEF

native gel or EMSA = molecular target: the molecule itself; assay: native gel or EMSA

B1: SV40 Large T-antigen (LT), wild type, purified from insect cells (natural protein)
chain: MDKVLNREESLQLMDLLGLERSAWGNIPLMRKAYLKKCKEFHPDKGGDEEKMKKMNTLYKKMEDGVKYAHQPDFGGFWDATEIPTYGTDEWEQWWNAFNEENLFCSEEMPSSDDEATADSQHSTPPKKKRKVEDPKDFPSELLSFLSHAVFSNRTLACFAIYTTKEKAALLYKKIMEKYSVTFISRHNSYNHNILFFLTPHRHRVSAINNYAQKLCTFSFLICKGVNKEYLMYSALTRDPFSVIEESLPGGLKEHDFNPEEAEETKQVSWKLVTEYAMETKCDDVLLLLGMYLEFQYSFEMCLKCIKKEQPSHYKYHEKHYANAAIFADSKNQKTICQQAVDTVLAKKRVDSLQLTREQMLTNRFNDLLDRMDIMFGSTGSADIEEWMAGVAWLHCLLPKMDSVVYDFLKCMVYNIPKKRYWLFKGPIDSGKTTLAAALLELCGGKALNVNLPLDRLNFELGVAIDQFLVVFEDVKGTGGESRDLPSGQGINNLDNLRDYLDGSVKVNLEKKHLNKRTQIFPPGIVTMNEYSVPKTLQARFVKQIDFRPKDYLKHCLERSEFLLEKRIIQSGIALLLMLIWYRPVAEFAQSIQSRIVEWKERLDKEFSLSVYQKMKFNVAMGIGVLDWLRNSDDDDEDSQENADKNEDGGEKNMEDSGHETGIDSQSQGSFQAPQSSQSVHDHNQPYHICRGFTCFKKPPTPPPEPET
Human Topoisomerase I
  binding result: binds

B2: SV40 Large T-antigen T518D (phosphomimetic mutant), purified from insect cells (natural protein)
chain: MDKVLNREESLQLMDLLGLERSAWGNIPLMRKAYLKKCKEFHPDKGGDEEKMKKMNTLYKKMEDGVKYAHQPDFGGFWDATEIPTYGTDEWEQWWNAFNEENLFCSEEMPSSDDEATADSQHSTPPKKKRKVEDPKDFPSELLSFLSHAVFSNRTLACFAIYTTKEKAALLYKKIMEKYSVTFISRHNSYNHNILFFLTPHRHRVSAINNYAQKLCTFSFLICKGVNKEYLMYSALTRDPFSVIEESLPGGLKEHDFNPEEAEETKQVSWKLVTEYAMETKCDDVLLLLGMYLEFQYSFEMCLKCIKKEQPSHYKYHEKHYANAAIFADSKNQKTICQQAVDTVLAKKRVDSLQLTREQMLTNRFNDLLDRMDIMFGSTGSADIEEWMAGVAWLHCLLPKMDSVVYDFLKCMVYNIPKKRYWLFKGPIDSGKTTLAAALLELCGGKALNVNLPLDRLNFELGVAIDQFLVVFEDVKGTGGESRDLPSGQGINNLDNLRDYLDGSVKVNLEKKHLNKRDQIFPPGIVTMNEYSVPKTLQARFVKQIDFRPKDYLKHCLERSEFLLEKRIIQSGIALLLMLIWYRPVAEFAQSIQSRIVEWKERLDKEFSLSVYQKMKFNVAMGIGVLDWLRNSDDDDEDSQENADKNEDGGEKNMEDSGHETGIDSQSQGSFQAPQSSQSVHDHNQPYHICRGFTCFKKPPTPPPEPET
Human Topoisomerase I
  binding result: binds
Native gel or EMSA
  stoichiometry N: 6
